In US20210095036A1 (University of Pennsylvania, published 2021):

T1: GFRα4 isoform a (GFRα4a), Fc fusion with 6 His (human)
T1 construct: the entry holds the whole fusion; also called GFR4α4a; immobilized GFRα4 isoform a
T1 chain: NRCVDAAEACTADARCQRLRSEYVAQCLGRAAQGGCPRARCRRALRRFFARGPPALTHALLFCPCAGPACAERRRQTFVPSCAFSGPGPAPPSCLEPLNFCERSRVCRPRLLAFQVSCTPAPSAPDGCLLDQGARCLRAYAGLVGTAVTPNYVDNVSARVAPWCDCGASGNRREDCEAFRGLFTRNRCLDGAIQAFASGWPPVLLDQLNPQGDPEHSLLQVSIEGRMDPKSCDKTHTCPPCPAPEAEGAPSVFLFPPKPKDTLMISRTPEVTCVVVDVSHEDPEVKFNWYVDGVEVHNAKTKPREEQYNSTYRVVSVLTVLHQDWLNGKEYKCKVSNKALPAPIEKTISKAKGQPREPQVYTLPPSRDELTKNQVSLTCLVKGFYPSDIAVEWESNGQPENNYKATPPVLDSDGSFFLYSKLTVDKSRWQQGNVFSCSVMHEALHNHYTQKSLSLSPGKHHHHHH


Experiments:
[1] = target: T1, GFRα4 isoform a (GFRα4a), Fc fusion …; experiment: phage ELISA, immobilized GFRα4a (FIG. 6)
Excerpt: (§1) To perform these ELISAs, the GFRα4a isoform comprising a portion of GFRα4a (Asn24 -Ser245, UniProt accession #Q9GZZ7-2) was used, followed by a Factor Xa cleavage site/linker, a portion of optimized IgG1 Fc domain (Pro100-Lys330), and 6 His residues for purification. The GFRα4b isoform comprised a portion of GFRα4b (Asn24-Va1274, UniProt #Q9GZZ7-1), followed by a TEV cleavage site linker, and a portion of human IgG1 Fc domain (Asp104-Lys330).
(§2) Binding of the positive scFvs from this experiment were also screened for binding to GFRα4b (FIG. 7). […] As observed in previous ELISAs of this type with the original rabbit P4-10 expressed as an antibody fragment on phage, reactivity always appears greater against the GFRα4b isoform.

[2] = target: T2, GFRα4 isoform b (GFRα4b), Fc fusion (human); experiment: phage ELISA, immobilized GFRα4b against GFRα4a
T2 construct: the entry holds the whole fusion; also called GFR4α4b; GFRα4-Fc
Excerpt: as §1, §2

[3] = target: T1, GFRα4 isoform a (GFRα4a), Fc fusion …; experiment: phage ELISA, immobilized GFRα4a; first token of the cell (GFRα4b: NT)
Excerpt: as §1

[4] = target: T1, GFRα4 isoform a (GFRα4a), Fc fusion …; experiment: phage ELISA, immobilized GFRα4a; first token of the cell (W weak binding)
Excerpt: as §1

[5] = target: T2, GFRα4 isoform b (GFRα4b), Fc fusion; experiment: phage ELISA, immobilized GFRα4b; second token of the cell
Excerpt: as §1
Target sequence in this assay (chain, as listed by the source limits assumed): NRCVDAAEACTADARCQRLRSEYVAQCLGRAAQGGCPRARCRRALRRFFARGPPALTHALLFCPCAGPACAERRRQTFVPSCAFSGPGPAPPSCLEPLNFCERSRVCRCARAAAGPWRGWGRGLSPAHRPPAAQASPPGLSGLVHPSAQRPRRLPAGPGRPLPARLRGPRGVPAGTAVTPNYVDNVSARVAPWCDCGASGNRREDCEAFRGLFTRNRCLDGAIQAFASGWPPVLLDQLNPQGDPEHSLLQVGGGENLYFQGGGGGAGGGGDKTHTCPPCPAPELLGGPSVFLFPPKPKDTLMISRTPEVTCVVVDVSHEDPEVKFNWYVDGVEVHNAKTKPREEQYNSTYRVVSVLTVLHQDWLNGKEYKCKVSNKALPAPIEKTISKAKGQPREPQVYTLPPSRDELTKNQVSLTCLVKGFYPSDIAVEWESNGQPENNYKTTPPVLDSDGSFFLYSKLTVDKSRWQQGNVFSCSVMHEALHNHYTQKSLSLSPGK

[6] = target: T1, GFRα4 isoform a (GFRα4a), Fc fusion …; experiment: phage ELISA, immobilized GFRα4a; first token of the cell
Excerpt: as §1

Row | Binder | binding result [3] | binding result [5] | further results
1 | 0.410HC.410LC (scFv, pIII not in the entry; order Vλ-linker-VH; positive control; also called original rabbit P4-10 scFv; scFv 0) scFv: QFVLTQSPSVSAALGASAKLTCTLSSAHKTYTIDWYQQQQGEAPRYLMQVKSDGSYTKGTGVPDRFSGSSSGADRYLIIPSVQADDEAGYVCGADDNGGYVFGGGTQLTVTGGGSSRSSSSGGGGSGGGGQSVKESEGGLFKPTDTLTLTCTVSGFSLSRHALTWVRQAPGNGLEWIGAIDNAGTTYYASWAKSRSTITRNTDLHTVTLKMTSLTASDTATYFCARVFYDINSGYYLDGMDLWGPGTLVTVSS |  |  | binding result [1]: binds; binding result [2]: binds
2 | 1.H1.L3 (scFv, pIII not in the entry; order Vλ-linker-VH; also called scFv 1) scFv: QSALTQPASVSGSPGQSITISCTGTSAHKTYTVSWYQQHPGKAPKLMIYVKSDGSYNRPSGVSNRFSGSKSGNTASLTISGLQAEDEADYYCGADDNGGYVFGGGTKLTVLGGGSSRSSSSGGGGSGGGGQVQLQESGPGLVKPSETLSLTCAVSGYSISRHALTWIRQPPGKGLEWIGAIDNAGTTYYASWAKSRVTISVDTSKNQFSLKLSSVTAADTAVYYCARVFYDINSGYYLDGMDLWGPGTLVTVSS | no binding |  | 
3 | 11.H2m1.L1 (scFv, pIII not in the entry; order Vλ-linker-VH; The printed entry has an E before QSVKE of the VH; also called scFv 11) scFv: QLVLTQSPSASASLGASVKLTCTLSSAHKTYTIAWHQQQPEKGPRYLMKVKSDGSYSKGDGIPDRFSGSSSGAERYLTISSLQSEDEADYYCGADDNGGYVFGGGTKLTVLGGGSSRSSSSGGGGSGGGGEQSVKESGGGLVQPGGSLRLSCAASGFTLSRHALTWVRQAPGKGLEWIGAIDNAGTTYYASWAKSRFTISRNTDLHTVYLQMNSLRAEDTAVYFCARVFYDINSGYYLDGMDLWGPGTLVTVSS | no binding |  | 
4 | 23.H1.L2m1 (scFv, pIII not in the entry; order Vλ-linker-VH; also called scFv 23) scFv: QFVLTQPPSASGTPGQRVTISCTLSSAHKTYTIDWYQQLPGTAPKLLIYVKSDGSYTKGTGVPDRFSGSSSGADRYLAISGLQSEDEADYYCGADDNGGYVFGGGTQLTVTGGGSSRSSSSGGGGSGGGGQVQLQESGPGLVKPSETLSLTCAVSGYSISRHALTWIRQPPGKGLEWIGAIDNAGTTYYASWAKSRVTISVDTSKNQFSLKLSSVTAADTAVYYCARVFYDINSGYYLDGMDLWGPGTLVTVSS |  | binds | binding result [4]: binds
5 | 29.H2.L1m3 (scFv, pIII not in the entry; order Vλ-linker-VH; The printed VL ends TVT; also called scFv 29) scFv: QLVLTQSPSASASLGASVKLTCTLSSAHKTYTIDWYQQQPEKGPRYLMQVKSDGSYTKGTGVPDRFSGSSSGADRYLTISSLQSEDEADYYCGADDNGGYVFGGGTQLTVTGGGSSRSSSSGGGGSGGGGEVQLVESGGGLVQPGGSLRLSCAASGFTFSRHALTWVRQAPGKGLEWVSAIDNAGTTYYASWAKSRFTISRDNAKNSLYLQMNSLRAEDTAVYYCARVFYDINSGYYLDGMDLWGPGTLVTVSS |  | binds | binding result [6]: binds
6 | 16.H1m1.L1m1 (scFv, pIII not in the entry; order Vλ-linker-VH; also called scFv 16) scFv: QFVLTQSPSASASLGASVKLTCTLSSAHKTYTIDWYQQQPEKGPRYLMQVKSDGSYTKGTGVPDRFSGSSSGADRYLTISSLQSEDEADYYCGADDNGGYVFGGGTQLTVTGGGSSRSSSSGGGGSGGGGQQSVKESGPGLVKPSETLSLTCAVSGFSLSRHALTWVRQPPGKGLEWIGAIDNAGTTYYASWAKSRVTISRNTDLHTVSLKLSSVTAADTAVYFCARVFYDINSGYYLDGMDLWGPGTLVTVSS |  | binds | binding result [6]: binds

The next lines start with results.

Row | binding result [3] | binding result [5] | Binder | further results
7 | no binding |  | 13.H1.L1 (scFv, pIII not in the entry; order Vλ-linker-VH; also called scFv 13) scFv: QLVLTQSPSASASLGASVKLTCTLSSAHKTYTIAWHQQQPEKGPRYLMKVKSDGSYSKGDGIPDRFSGSSSGAERYLTISSLQSEDEADYYCGADDNGGYVFGGGTKLTVLGGGSSRSSSSGGGGSGGGGQVQLQESGPGLVKPSETLSLTCAVSGYSISRHALTWIRQPPGKGLEWIGAIDNAGTTYYASWAKSRVTISVDTSKNQFSLKLSSVTAADTAVYYCARVFYDINSGYYLDGMDLWGPGTLVTVSS | 
8 | no binding |  | 7.H2m1.L2 (scFv, pIII not in the entry; order Vλ-linker-VH; The printed entry has an E before QSVKE of the VH; also called scFv 7) scFv: QSVLTQPPSASGTPGQRVTISCSGSSAHKTYTVNWYQQLPGTAPKLLIYVKSDGSYQRPSGVPDRFSGSKSGTSASLAISGLQSEDEADYYCGADDNGGYVFGGGTKLTVLGGGSSRSSSSGGGGSGGGGEQSVKESGGGLVQPGGSLRLSCAASGFTLSRHALTWVRQAPGKGLEWIGAIDNAGTTYYASWAKSRFTISRNTDLHTVYLQMNSLRAEDTAVYFCARVFYDINSGYYLDGMDLWGPGTLVTVSS | 
9 | no binding |  | 5.H2.L2 (scFv, pIII not in the entry; order Vλ-linker-VH; also called scFv 5) scFv: QSVLTQPPSASGTPGQRVTISCSGSSAHKTYTVNWYQQLPGTAPKLLIYVKSDGSYQRPSGVPDRFSGSKSGTSASLAISGLQSEDEADYYCGADDNGGYVFGGGTKLTVLGGGSSRSSSSGGGGSGGGGEVQLVESGGGLVQPGGSLRLSCAASGFTFSRHALTWVRQAPGKGLEWVSAIDNAGTTYYASWAKSRFTISRDNAKNSLYLQMNSLRAEDTAVYYCARVFYDINSGYYLDGMDLWGPGTLVTVSS | 
10 |  | no binding | 21.H2.L1m2 (scFv, pIII not in the entry; order Vλ-linker-VH; also called scFv 21) scFv: QFVLTQSPSASASLGASVKLTCTLSSAHKTYTIDWHQQQPEKGPRYLMQVKSDGSYTKGTGIPDRFSGSSSGAERYLTISSLQSEDEADYYCGADDNGGYVFGGGTQLTVLGGGSSRSSSSGGGGSGGGGEVQLVESGGGLVQPGGSLRLSCAASGFTFSRHALTWVRQAPGKGLEWVSAIDNAGTTYYASWAKSRFTISRDNAKNSLYLQMNSLRAEDTAVYYCARVFYDINSGYYLDGMDLWGPGTLVTVSS | binding result [6]: no binding
11 | no binding |  | 9.H2.L1 (scFv, pIII not in the entry; order Vλ-linker-VH; also called scFv 9) scFv: QLVLTQSPSASASLGASVKLTCTLSSAHKTYTIAWHQQQPEKGPRYLMKVKSDGSYSKGDGIPDRFSGSSSGAERYLTISSLQSEDEADYYCGADDNGGYVFGGGTKLTVLGGGSSRSSSSGGGGSGGGGEVQLVESGGGLVQPGGSLRLSCAASGFTFSRHALTWVRQAPGKGLEWVSAIDNAGTTYYASWAKSRFTISRDNAKNSLYLQMNSLRAEDTAVYYCARVFYDINSGYYLDGMDLWGPGTLVTVSS | 
12 | no binding |  | 15.H1m1.L1 (scFv, pIII not in the entry; order Vλ-linker-VH; also called scFv 15) scFv: QLVLTQSPSASASLGASVKLTCTLSSAHKTYTIAWHQQQPEKGPRYLMKVKSDGSYSKGDGIPDRFSGSSSGAERYLTISSLQSEDEADYYCGADDNGGYVFGGGTKLTVLGGGSSRSSSSGGGGSGGGGQQSVKESGPGLVKPSETLSLTCAVSGFSLSRHALTWVRQPPGKGLEWIGAIDNAGTTYYASWAKSRVTISRNTDLHTVSLKLSSVTAADTAVYFCARVFYDINSGYYLDGMDLWGPGTLVTVSS | 
13 | no binding |  | 3.H1m1.L3 (scFv, pIII not in the entry; order Vλ-linker-VH; also called scFv 3; H1m.L3) scFv: QSALTQPASVSGSPGQSITISCTGTSAHKTYTVSWYQQHPGKAPKLMIYVKSDGSYNRPSGVSNRFSGSKSGNTASLTISGLQAEDEADYYCGADDNGGYVFGGGTKLTVLGGGSSRSSSSGGGGSGGGGQQSVKESGPGLVKPSETLSLTCAVSGFSLSRHALTWVRQPPGKGLEWIGAIDNAGTTYYASWAKSRVTISRNTDLHTVSLKLSSVTAADTAVYFCARVFYDINSGYYLDGMDLWGPGTLVTVSS | 
